# B1: Natalizumab reference product (Referent batches) (antibody, human IgG4, kappa, V domains shown)
# VH: QVQLVQSGAEVKKPGASVKVSCKASGFNIKDTYIHWVRQAPGQRLEWMGRIDPANGYTKYDPKFQGRVTITADTSASTAYMELSSLRSEDTAVYYCAREGYYGNYGVYAMDYWGQGTLVTVSS
# VL: DIQMTQSPSSLSASVGDRVTITCKTSQDINKYMAWYQQTPGKAPRLLIHYTSALQPGIPSRFSGSGSGRDYTFTISSLQPEDIATYYCLQYDNLWTFGQGTKVEIKR
# Key:
# α4β7 integrin [1] = target: T1, α4β7 integrin (UniProt P13612 34-970; P26010 20-723, limits assumed); experiment: MadCAM-1 competitive ELISA; coated α4β7 integrin, Fc-tagged MadCAM-1 as competitor; lowest of 24 batches
# Method: (§1) In still another alternative one can measure MadCAM-1 competitive binding by ELISA. The aim of this assay is to test the ability of natalizumab to inhibit interaction of α₄β₇ integrin with its cognate receptor—MadCAM-1 protein in a dose-dependent manner. Constant amount of the coated α₄β₇ integrin is incubated with serial dilutions of natalizumab in the presence of Fc-tagged MadCAM-1 receptor. Natalizumab and MadCAM-1 receptor now compete for binding to solid-phase associated α₄β₇ integrin. The higher the natalizumab concentration the more MadCAM-1 is inhibited from binding to α₄β₇ integrin. The lowest signal result is observed when no natalizumab is present. […] is subsequently detected with a POD-conjugated anti-human IgG antibody and a TMB-substrate reaction at the end of the assay. Data are analyzed with 4PL fitting model. Final result is expressed as a Relative Potency (REP) of tested sample in relation to reference standard. The method variability was determined at the level of 8% coefficient variation (CV) of intermediate precision within the qualification exercise. Additionally accuracy, linearity and specificity were tested.
# α4β7 integrin [2] = target: T1, α4β7 integrin; experiment: MadCAM-1 competitive ELISA; coated α4β7 integrin, Fc-tagged MadCAM-1 as competitor; highest of 24 batches
# Method: as §1
# HIS-tagged α4β1 integrin [3] = target: T2, HIS-tagged α4β1 integrin (UniProt P13612 34-977; P05556 21-728, limits assumed); experiment: VCAM-1 competitive ELISA; coated VCAM-1 as competitor, HIS-tagged α4β1 integrin in solution; 26 batches, n=3
# T2 construct: Soluble, HIS-tagged
# Method: (§2) Alternatively, one can also measure VCAM-1 competitive binding by ELISA. The aim of this assay is to test the ability of natalizumab to inhibit interaction of α₄β₁ integrin with its cognate receptor VCAM-1 protein in a dose-dependent manner. Constant amount of the coated VCAM-1 protein is incubated with serial dilutions of natalizumab in the presence of HIS-tagged α₄β₁ integrin. Solid-phase associated VCAM-1 and soluble natalizumab now compete for binding to α₄β₁, integrin. The higher the natalizumab concentration the more α4β1 integrin is inhibited from binding to VCAM-1. The highest signal result is observed when no natalizumab is present. Bound HIS-tagged α₄β₁ integrin is subsequently detected with a biotinylated anti-HIS-tag antibody, POD-conjugated Streptavidin and a TMB-substrate reaction at the end of the assay. Data are analyzed with 4PL fitting model. Final result is expressed as a Relative Potency (REP) of tested sample in relation to reference standard. The method variability was determined at the level of 7% coefficient variation (CV) of intermediate precision within the qualification exercise. Additionally accuracy, linearity and specificity were tested.
# HIS-tagged α4β1 integrin [4] = target: T2, HIS-tagged α4β1 integrin; experiment: VCAM-1 competitive ELISA; coated VCAM-1 as competitor, HIS-tagged α4β1 integrin in solution; lowest of 26 batches
# Method: as §2
# HIS-tagged α4β1 integrin [5] = target: T2, HIS-tagged α4β1 integrin; experiment: VCAM-1 competitive ELISA; coated VCAM-1 as competitor, HIS-tagged α4β1 integrin in solution; highest of 26 batches
# Method: as §2
# α4β7 integrin [6] = target: T1, α4β7 integrin; experiment: MadCAM-1 competitive ELISA; coated α4β7 integrin, Fc-tagged MadCAM-1 as competitor, bound natalizumab detected; 24 batches, n=3
# Method: as §1
binder,measurement,setting,value
B1,"Relative Potency (REP), min",α4β7 integrin [1],0.83 REP (relative to reference standard)
same,"Relative Potency (REP), max",α4β7 integrin [2],1.17 REP (relative to reference standard)
same,"Relative Potency (REP), average",HIS-tagged α4β1 integrin [3],1.04 REP (relative to reference standard)
same,"Relative Potency (REP), min",HIS-tagged α4β1 integrin [4],0.916 REP (relative to reference standard)
same,"Relative Potency (REP), max",HIS-tagged α4β1 integrin [5],1.2 REP (relative to reference standard)
same,"Relative Potency (REP), average",α4β7 integrin [6],0.995 REP (relative to reference standard)
